This is an account of results in EP4663199A1.

The experiment deals with bispecific binding molecule comprising a first specific binding molecule (comprising SEQ ID NO:265 a).
Chain of bispecific binding molecule comprising a first specific binding molecule (comprising SEQ ID NO:265 a) (chain, as listed by the source, chain 1 of 3): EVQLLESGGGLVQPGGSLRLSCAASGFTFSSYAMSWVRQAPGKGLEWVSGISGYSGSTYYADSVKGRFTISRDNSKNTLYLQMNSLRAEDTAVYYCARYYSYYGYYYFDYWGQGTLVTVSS
Chain of bispecific binding molecule comprising a first specific binding molecule (comprising SEQ ID NO:265 a) (chain, as listed by the source, chain 2 of 3): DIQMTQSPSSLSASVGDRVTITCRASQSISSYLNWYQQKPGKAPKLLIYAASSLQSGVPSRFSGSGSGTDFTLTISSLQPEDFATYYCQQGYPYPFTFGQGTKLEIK
Chain of bispecific binding molecule comprising a first specific binding molecule (comprising SEQ ID NO:265 a) (chain, as listed by the source, chain 3 of 3): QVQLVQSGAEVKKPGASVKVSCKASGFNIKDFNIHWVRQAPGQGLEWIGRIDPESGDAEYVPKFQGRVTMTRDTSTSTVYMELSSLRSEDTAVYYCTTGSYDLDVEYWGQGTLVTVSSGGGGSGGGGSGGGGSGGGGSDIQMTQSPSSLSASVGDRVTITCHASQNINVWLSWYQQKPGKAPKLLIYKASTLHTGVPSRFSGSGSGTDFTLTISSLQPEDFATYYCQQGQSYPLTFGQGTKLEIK

For FIGITELKK (modifications not checked) [tag moiety … (SEQ ID NO:2)], the Kd is 9.4 pM. This lies in the picomolar range.
